Experimental findings from patent US6500669, “Programmable genotoxic agents and uses therefor” (Massachusetts Institute of Technology) are described below.

In the data set the target is streptavidin (UniProt P22629 P22629:25-183). As to the kind of experiment: EMSA; half-maximum binding (C1/2) via biotin on the adduct; reversed by free d-biotin; 100 mM NaCl, MgCl2, pH 7.4, room temperature. The settings on record: tags: Pierce; chain copies: 4; label: 5' 32P. The procedure: Gel Mobility Shift Assay. […] A constant amount of the lesioned U-17 (3200 cpm, ~0.1 nM) was used in each incubation, with the concentration of streptavidin varied from 0 to 50 nM. Free d-biotin (0.4 mM) was added into the incubation(s) where indicated. After electrophoresis, the gel was dried and exposed to x-ray film with an intensifying screen. The dried gel was also exposed to a PhorphorImager screen and the data were analyzed with IMAGEQUANT software (Molecular Dynamics, Sunnyvale, Calif.).
streptavidin, sequence (P22629 25-183, one chain of several): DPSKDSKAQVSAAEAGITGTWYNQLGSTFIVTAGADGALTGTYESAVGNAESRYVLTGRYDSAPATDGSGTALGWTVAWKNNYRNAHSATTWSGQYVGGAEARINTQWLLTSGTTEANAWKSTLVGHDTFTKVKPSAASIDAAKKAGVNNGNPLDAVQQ
On the technique in general: A gel shift assay detects complexes by their altered migration in electrophoresis.

B1: TMP-biotin monoadducted U-17 (dsDNA)
DNA 1: CGGCCGTACGUGCGCCG
DNA 2: CGGCGCACGTACGGCCG
modifications: TMP-biotin (psoralen-biotin) monoadduct at T7 of the central TA; deoxyuridine at position 11
As a reminder, the Kd is a measure of binding affinity in units of concentration. B1 had a Kd of about 1.5 nM.
